Results on 1 protein are retold here after FireProtDB (doi:10.1021/bi00485a005).

For this series the following is noted: Aspergillus oryzae (strain ATCC 42149 / RIB 40), 25 °C, Urea, Fluorescence, NaCl 0.2 M, whole UniProt chain shown.

B1: Guanyl-specific ribonuclease T1 wild type, P00651 (protein)
chain: MMYSKLLTLTTLLLPTALALPSLVERACDYTCGSNCYSSSDVSTAQAAGYQLHEDGETVGSNSYPHKYNNYEGFDFSVSSPYYEWPILSSGDVYSGGSPGADRVVFNENNQLAGVITHTGASGNNFVECT
B1: where the note is “pH 6.02, MES 30 mM”, the denaturant m value turned out to be 1.25 kcal/mol/M, the “denaturant midpoint (higher = more stable)” value came out at 6.58 M and the unfolding free energy is 8.24 kcal/mol. Under “pH 8.02, HEPPSO 30 mM”, the denaturant m value stood at 1.35 kcal/mol/M, the “denaturant midpoint (higher = more stable)” value was 4.38 M and the unfolding free energy was 5.92 kcal/mol.
